US12006373

Target: human CD3ε expressed on Jurkat T cells (clone E6-1) as part of TCR-CD3 complexes (human) (UniProt P07766)
Test: cell-based or functional assay

Chain of human CD3ε expressed on Jurkat T cells (clone E6-1) as part of TCR-CD3 complexes (human) (P07766 23-207, one chain of several): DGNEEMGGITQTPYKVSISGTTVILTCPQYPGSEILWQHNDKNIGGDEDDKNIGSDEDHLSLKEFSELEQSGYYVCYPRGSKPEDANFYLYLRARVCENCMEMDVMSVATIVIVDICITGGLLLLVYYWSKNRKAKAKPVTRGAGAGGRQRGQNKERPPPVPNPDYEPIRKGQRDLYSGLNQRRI

expansion of Jurkat cells during 48 hours of culture (hemocytometer count): 1.9 times
Substance: biotin anti-human CD3ε (OKT3) antibody coated on M280 streptavidin Dynabeads
